Patent US9045559B2, “Method for screening inhibitors of interleukin-32 (IL-32)” (Yeda Research and Development Co. Ltd, priority 2005, dated 2015)
Entries after “also recorded” stand apart in the source; their conditions may differ. No end group written: not given here.

Experiments:
PR-3 [1] = target: T1, PR-3 (Homo sapiens, UniProt P24158); test: Inhibition of the proteolytic activity of PR-3 by PMSF (cleavage of 125I-IL-32); assay type: biochemical; conditions: PR-3 pre-incubated with PMSF 1 mM, 10 min at 37° C.; then 1 and 5 min with 125I-IL-32
T1 construct: tissue Athens Research and Technology
T1 sequence (P24158 28-248 limits assumed): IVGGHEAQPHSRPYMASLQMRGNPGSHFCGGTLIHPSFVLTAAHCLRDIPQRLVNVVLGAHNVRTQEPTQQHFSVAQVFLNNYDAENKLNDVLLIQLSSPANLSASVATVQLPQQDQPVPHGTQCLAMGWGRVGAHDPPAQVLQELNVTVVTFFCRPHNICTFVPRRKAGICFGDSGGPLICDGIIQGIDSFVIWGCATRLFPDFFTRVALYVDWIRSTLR
Description: Lanes 1-4 show ^125I-IL-32 following incubation with urinary PR-3 for 1 and 5 min., either not treated (Lanes 1 and 2) or pre-treated with PMSF (Lanes 3 and 4). Lanes 7-10 show ^125I-IL-32 following incubation with commercial PR-3 for 1 and 5 min., either not treated (Lanes 9 and 10) or pre-treated with PMSF (Lanes 7 and 8). Molecular weight markers (in kDa; lane 5) are indicated at the right side.
The experiment presented in FIG. 6 was performed as described in examples 5 and 6, except that PR-3 was pre-incubated with PMSF (final concentration of 1 mM, 10 min at 37° C.) prior to the incubation with ^125I-IL-32.

IL-32 responsive cells = test: Biological activity of IL-32 and its proteolytic fragments (summary statement referring to Example 8); assay type: cell-based; conditions: for biological activity compared to the intact IL-32 protein: fragments generated by PR-3 cleavage
From the text: The cleavage of IL-32 and the consequent enhancement of the biological activity were both blocked by the action of PMSF.
For the purpose of the present description the expression “biological activity of IL-32” refers inter alia to at least one of the following biological properties:
(i) induction of MIP-2, (ii) induction of TNF, and (iii) induction of IL-8.

PR-3 [2] = target: T2, PR-3 (Homo sapiens, UniProt P24158); conditions: cited from earlier work; for kI for PR-3: Kam, 1992
T2 sequence (P24158 28-248): T1 sequence (P24158 28-248 limits assumed)

^125I-IL-32 = target: T3, ^125I-IL-32 (Homo sapiens, UniProt P24001); test: Kinetics of degradation of 125I-IL-32 by urinary and commercial PR-3 (SDS-PAGE, autoradiography); assay type: biochemical
T3 construct: made in house; host or cells: E. coli (IL-32α)
T3 sequence (P24001 1-131 isoform P24001-4): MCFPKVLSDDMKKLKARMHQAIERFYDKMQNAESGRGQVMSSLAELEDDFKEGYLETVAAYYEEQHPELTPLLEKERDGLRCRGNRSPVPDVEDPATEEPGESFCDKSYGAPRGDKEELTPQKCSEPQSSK
T3 sequence (P24158 28-248 partner limits assumed): T1 sequence (P24158 28-248 limits assumed)
Description: After 1 minute of incubation with PR-3 the 20 kDa IL-32 (Lane 1) was cleaved into two cleavage products of 16 and 13 kDa (Lane 2). After 5 min. (Lane 3) the band corresponding to the intact IL-32 disappeared and the cleavage products remained stable for at least 60 min. (lanes 3, 4, 6, and 7). The resulting ^125I-IL-32 fragments of apparent MW of 20 kDa, 16 kDa and 13 kDa are indicated on the left side of the FIG.
The experiment was carried out essentially as indicated in FIG. 4 (Example 5) except, that incubation of PR-3 and IL32 was limited to up to 5 minutes and that both urinary and commercial PR-3 were used. Urinary (Lines 1-3) or commercial PR-3 (Lines 5-7) were incubated with ^125I-IL-32 for 0, 1 and 5 minutes.
Affinity purified urinary PR-3 (elution 3 fraction from Example 1, FIG. 1, 50 μl) was added to ^125I-IL-32 (250,000 cpm in 10 μl of gelatin solution) and incubated at 37° C. for 0, 1, 5, 15, 30, and 60 min. (FIG. 4). Degradation was stopped by the addition of SDS-PAGE sample buffer and by boiling for 10 min. Samples containing ^125I-IL-32 and PR-3 incubated at different periods of time (0-60 min.) were resolved on 12% SDS-PAGE under reducing conditions. The gel was dried and autoradiographed. The results summarized on FIG. 4 show the reduction in the 20 kDa band representing intact IL-32 (FIG. 4, lane 1) and the increase in the levels of a 16 and 13 kDa IL-32 cleavage products after a 1-minute incubation with PR-3 (FIG. 4, lane 2).
Urinary PR-3 or commercial PR-3 (Athens Research and Technology) were incubated with ^125I-IL-32 for 0, 1 and 5 min. Digestion was stopped by the addition of SDS-PAGE sample buffer and by boiling for 10 min. The samples were resolved on SDS-PAGE under reducing conditions. The gel was dried and autoradiographed. […] This difference is probably due to a different specific activity of urinary vs. commercial PR3.

Raw 264.7 cells = test: MIP-2 secretion by mouse macrophage Raw 264.7 cells stimulated with IL-32 or PR-3-pretreated IL-32; assay type: cell-based; conditions: IL-32 20 or 200 ng/ml; PR-3 100 ng/ml, 5 min pretreatment; 16-20 h; polymyxin B 5 μg/ml
Description: Mouse macrophage Raw 264.7 cell line were seeded in a 96 well plate and incubated with IL-32 (20 or 200 ng/ml), IL-32 pretreated with PR-3 (100 ng/ml) for 5 min. or with PR-3 alone as the a control, and MIP-2 secreted into the cell culture medium was measured. […] PR-3 alone had no effect on the cells.
Mouse macrophage Raw 264.7 cell line (American Type Culture Collection, ATCC) was maintained in RP MI-1640 medium containing 10% FCS. Bioassays were performed in 96 well plates. Briefly, Raw cells (5×10^5/ml, 0.1 ml/per well) were seeded and cultured until cells adhered to the plate. The medium was removed and the cells were then stimulated with fresh medium (without FCS) containing different concentration of IL-32 or IL-32 pre-treated with PR-3 for 5 min at room temperature in the presence 5 μg/ml of the LPS blocker polymyxin B (Bedford Laboratories, Bedford, Ohio). The plates were incubated at 37° C. with 5% CO2 for 16-20 h and then the culture supernatants were collected to measure MIP-2 released by the cell culture.

[3] = tested on: human peripheral blood mononuclear cells (PBMC); test: IL-8 secretion by human PBMC stimulated with IL-32 or PR-3-pretreated IL-32; assay type: cell-based; conditions: IL-32 20 or 200 ng/ml; PR-3 100 ng/ml, 5 min pretreatment
Description: Human PBMC cells were seeded in 96 well plates and incubated with IL-32 (20 or 200 ng/ml), IL-32 pretreated with PR-3 (100 ng/ml) for 5 min. or with PR-3 alone as the a control. The content of IL-8 into the cell culture medium was measured.
Similar enhancement of IL-32 activity by pre-treatment with PR-3 was shown in an experiment carried out with human peripheral blood mononuclear cells (PBMC). PBMC were prepared as previously described [Kim, 2005 #36] and seeded at a concentration of 5×10^5 cells per well in 96 well plates. The experimental setting of stimulation with IL-32 and IL-32 pre treated with PR-3 was identical to that described above for the mouse Raw cells. After stimulation of the human PBMC cells with either IL-32 or IL-32 pre treated with PR-3, the culture supernatants were collected to measure human IL-8 released by the cells.

Molecule: O=S(=O)(F)Cc1ccccc1 [PMSF, phenyl methyl sulfonyl fluoride]
- cleavage of IL-32 by urinary and commercial PR-3 (PR-3 [1]): completely abolished; also recorded: completely blocked
- enhancement of the biological activity of IL-32 following cleavage by PR-3 (IL-32 responsive cells; action of PMSF): blocked

Molecule: Nc1ccc2c(Cl)c(OCCBr)oc(=O)c2c1 [7-amino-4-chloro-3-(2-bromoethoxy) isocoumarin]
- kI for PR-3 (PR-3 [2]): 4700 M⁻¹ s⁻¹

Molecule: Cc1ccc(C(=O)Nc2ccc(S(=O)(=O)O)c3cc(S(=O)(=O)O)cc(S(=O)(=O)O)c23)cc1NC(=O)c1cccc(NC(=O)Nc2cccc(C(=O)Nc3cc(C(=O)Nc4ccc(S(=O)(=O)O)c5cc(S(=O)(=O)O)cc(S(=O)(=O)O)c45)ccc3C)c2)c1 [Suramin]
- Ki (PR-3 [2]; Cadene, 1997): 500 nM

Molecule: MCFPKVLSDDMKKLKARMHQAIERFYDKMQNAESGRGQVMSSLAELEDDFKEGYLET (listed as Homo sapiens) [13 kDa (SEQ ID NO: 1), supposed N-terminal fragment of IL-32 generated by PR-3]
- biological activity compared to the intact IL-32 protein (IL-32 responsive cells): enhanced biological activity

Molecule: O=c1oc(Cl)c(Cl)c2ccccc12 [3,4-dichloroisocoumarin]
- kI for PR-3 (PR-3 [2]): 2600 M⁻¹ s⁻¹

Molecule: Elafin: a human skin derived peptide that inhibits human leukocyte elastase (AQEPVKGPVSTKPGSCPIILIRCAMLNPPNRCLKDTDCPGIKKCCEGSCGMACFVPQ; ends and bridges not checked; cysteine pairing not given here; UniProt P19957 61-117, looked up)
- IC50 (PR-3 [2]; Wiedow, 1991, Zani, 2004): 9.5 nM
- potency compared with antileukoprotease and eglin C (PR-3 [2]; inhibition of PR-3): more than 100 fold

B1: urinary PR-3: human Proteinase-3 (28-32 kDa) affinity purified from human urine on an IL-32 column, elution fraction 3 (protein)
chain: T1 sequence (P24158 28-248 limits assumed)
- incubation time to complete disappearance of the 20 kDa intact IL-32 band (^125I-IL-32; 37° C., cleaved into 16 and 13 kDa fragments): 5 min

B2: commercial PR-3: commercially available human neutrophil derived PR-3 (Athens Research and Technology) (protein)
chain: T1 sequence (P24158 28-248 limits assumed)
- potency of IL-32 cleavage, commercial vs urinary PR-3 (^125I-IL-32; incubation 0, 1 and 5 min): more potent than the urinary PR-3; also recorded: more efficient than the urine-derived PR-3

B3: VAAYYEEQHPELTPLLEKERDGLRCRGNRSPVPDVEDPATEEPGESFCDKSYGAPR GDKEELTPQKCSEPQSSK (protein, listed as Homo sapiens)
chain: VAAYYEEQHPELTPLLEKERDGLRCRGNRSPVPDVEDPATEEPGESFCDKSYGAPRGDKEELTPQKCSEPQSSK
notes: C-terminal fragment of IL-32 generated by PR-3
- biological activity compared to the intact IL-32 protein (IL-32 responsive cells): enhanced biological activity

B4: IL-32: recombinant human IL-32α produced in E. coli, about 20 kDa (protein)
chain: T3 sequence (P24001 1-131 isoform P24001-4)
- MIP-2 secreted into the cell culture medium (Raw 264.7 cells): induced the secretion of MIP-2
- IL-8 secreted into the cell culture medium [3]: induced the secretion of IL-8

B5: PR-3: granule serine protease, source (urinary or commercial) not stated at these places (protein)
chain: AEIVGGHEAQPHSRPYMASLQMRGNPGSHFCGGTLIHPSFVLTAAHCLRDIPQRLVNVVLGAHNVRTQEPTQQHFSVAQVFLNNYDAENKLNDVLLIQLSSPANLSASVATVQLPQQDQPVPHGTQCLAMGWGRVGAHDPPAQVLQELNVTVVTFFCRPHNICTFVPRRKAGICFGDSGGPLICDGIIQGIDSFVIWGCATRLFPDFFTRVALYVDWIRSTLRRVEAKGRP
- digestion of IL-32 after overnight incubation with PR-3 (^125I-IL-32; overnight at 4° C., no product higher than the 10 kDa marker): complete digestion
- MIP-2 secreted into the cell culture medium (Raw 264.7 cells): no effect
- IL-8 secreted into the cell culture medium [3]: did not induce IL-8

B6: MNEI: a 42 kDa serpin superfamily member (protein, UniProt P30740 1-379, looked up)
Leukocyte elastase inhibitor: MEQLSSANTRFALDLFLALSENNPAGNIFISPFSISSAMAMVFLGTRGNTAAQLSKTFHFNTVEEVHSRFQSLNADINKRGASYILKLANRLYGEKTYNFLPEFLVSTQKTYGADLASVDFQHASEDARKTINQWVKGQTEGKIPELLASGMVDNMTKLVLVNAIYFKGNWKDKFMKEATTNAPFRLNKKDRKTVKMMYQKKKFAYGYIEDLKCRVLELPYQGEELSMVILLPDDIEDESTGLKKIEEQLTLEKLHEWTKPENLDFIEVNVSLPRFKLEESYTLNSDLARLGVQDLFNSSKADLSGMSGARDIFISKIVHKSFVEVNEEGTEAAAATAGIATFCMLMPEENFTADHPFLFFIRHNSSGSILFLGRFSSP
- rate of PR-3 inhibition (PR-3 [2]; Cooley, 2001): > 10^7 M^−1·s^−1
